The values that follow are results of earlier work, collected in paper PMC12728182.

Among the targets are PAK1 (Homo sapiens) (UniProt Q13153); WASP (Homo sapiens) (UniProt P42768); ACK (Homo sapiens) (UniProt Q07912).

Cdc42, sequence (P60953 1-188): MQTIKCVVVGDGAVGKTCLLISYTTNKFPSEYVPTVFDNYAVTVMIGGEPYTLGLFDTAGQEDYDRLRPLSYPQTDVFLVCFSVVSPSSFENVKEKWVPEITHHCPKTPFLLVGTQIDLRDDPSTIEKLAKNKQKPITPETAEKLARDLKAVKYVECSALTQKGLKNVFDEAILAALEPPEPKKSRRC
WASP (Homo sapiens), sequence (P42768 2-502): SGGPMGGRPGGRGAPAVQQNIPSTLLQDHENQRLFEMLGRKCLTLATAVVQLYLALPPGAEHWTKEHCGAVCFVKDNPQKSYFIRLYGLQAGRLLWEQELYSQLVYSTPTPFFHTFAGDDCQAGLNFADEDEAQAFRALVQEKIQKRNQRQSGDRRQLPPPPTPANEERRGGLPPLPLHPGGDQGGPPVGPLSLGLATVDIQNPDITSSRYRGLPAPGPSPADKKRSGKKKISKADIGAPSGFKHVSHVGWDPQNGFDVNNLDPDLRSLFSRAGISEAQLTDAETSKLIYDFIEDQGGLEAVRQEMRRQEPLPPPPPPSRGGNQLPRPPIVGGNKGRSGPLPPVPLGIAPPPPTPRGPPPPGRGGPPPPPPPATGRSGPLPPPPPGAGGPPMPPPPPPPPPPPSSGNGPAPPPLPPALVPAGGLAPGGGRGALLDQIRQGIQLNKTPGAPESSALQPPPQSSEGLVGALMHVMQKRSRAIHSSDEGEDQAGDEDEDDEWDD
PAK1 (Homo sapiens), sequence (Q13153 2-545): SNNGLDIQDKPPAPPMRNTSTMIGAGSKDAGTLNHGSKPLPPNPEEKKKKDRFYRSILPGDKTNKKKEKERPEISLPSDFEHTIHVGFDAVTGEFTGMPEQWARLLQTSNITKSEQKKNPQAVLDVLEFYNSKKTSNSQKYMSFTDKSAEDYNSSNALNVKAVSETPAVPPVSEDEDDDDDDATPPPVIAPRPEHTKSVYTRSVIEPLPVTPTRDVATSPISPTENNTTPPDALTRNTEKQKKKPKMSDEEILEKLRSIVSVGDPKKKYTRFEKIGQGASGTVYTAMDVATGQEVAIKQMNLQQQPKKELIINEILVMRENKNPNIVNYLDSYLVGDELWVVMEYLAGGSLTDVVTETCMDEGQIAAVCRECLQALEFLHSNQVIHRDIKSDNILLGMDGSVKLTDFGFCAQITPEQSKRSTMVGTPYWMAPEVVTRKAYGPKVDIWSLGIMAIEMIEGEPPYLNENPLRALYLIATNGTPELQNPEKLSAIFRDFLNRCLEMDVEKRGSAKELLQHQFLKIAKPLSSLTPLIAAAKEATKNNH
ACK (Homo sapiens), sequence (Q07912 whole entry): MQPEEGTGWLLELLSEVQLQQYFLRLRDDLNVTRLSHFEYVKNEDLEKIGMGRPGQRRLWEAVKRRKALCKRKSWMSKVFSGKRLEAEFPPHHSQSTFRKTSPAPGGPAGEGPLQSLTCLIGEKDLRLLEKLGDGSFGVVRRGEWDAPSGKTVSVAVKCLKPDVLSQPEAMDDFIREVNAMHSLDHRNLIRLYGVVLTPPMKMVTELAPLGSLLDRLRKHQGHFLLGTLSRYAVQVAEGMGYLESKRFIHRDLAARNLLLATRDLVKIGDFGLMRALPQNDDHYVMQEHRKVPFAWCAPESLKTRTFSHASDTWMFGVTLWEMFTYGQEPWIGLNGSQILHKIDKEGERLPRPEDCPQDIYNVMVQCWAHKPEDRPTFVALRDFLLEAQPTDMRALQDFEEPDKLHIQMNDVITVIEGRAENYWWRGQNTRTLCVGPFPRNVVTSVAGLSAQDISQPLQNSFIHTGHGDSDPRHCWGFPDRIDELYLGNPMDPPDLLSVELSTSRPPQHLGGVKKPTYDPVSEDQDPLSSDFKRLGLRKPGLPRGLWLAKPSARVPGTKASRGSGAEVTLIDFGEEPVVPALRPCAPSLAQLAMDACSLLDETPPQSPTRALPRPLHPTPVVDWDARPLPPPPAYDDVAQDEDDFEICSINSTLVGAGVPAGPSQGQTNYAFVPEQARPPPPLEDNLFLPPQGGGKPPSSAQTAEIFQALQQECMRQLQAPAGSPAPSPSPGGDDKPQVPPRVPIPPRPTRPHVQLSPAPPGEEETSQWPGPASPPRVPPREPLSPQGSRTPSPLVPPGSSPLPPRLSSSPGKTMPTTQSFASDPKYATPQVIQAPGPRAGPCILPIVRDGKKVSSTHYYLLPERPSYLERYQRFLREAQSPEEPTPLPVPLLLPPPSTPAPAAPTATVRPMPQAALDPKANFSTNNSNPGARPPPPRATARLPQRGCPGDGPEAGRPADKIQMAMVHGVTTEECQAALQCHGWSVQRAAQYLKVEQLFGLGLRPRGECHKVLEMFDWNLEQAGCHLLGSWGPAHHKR

On to Cdc42 (from UniProt P60953), for which the Kd in the data set with PAK1 (Homo sapiens) was 620 nM; with WASP (Homo sapiens) it was 55 nM; with ACK (Homo sapiens), 770 nM.
